Source: patent US20250019442A1 (LANOVA MEDICINES, published 2025)

How the values were obtained:
[1] = target: T1, human PD-1 overexpressed on cells (human, UniProt Q15116 25-288); assay: flow cytometry on CHO-K1 cells overexpressing human PD-1; column headed OD450 but the text says MFI of PE; design: unit not given here
T1 construct: whole, on cells; also called CHO-K1 cells overexpressing human PD-1; Jurkat-PD1 cells
Method: (§1) To further determine PD-1 binding activity of the bispecific antibodies, CHO-K1 cells overexpressing human PD-1 were incubated with different concentrations of anti-PD1-VEGF bispecific antibodies and reference antibodies at 4° C. for 30 minutes. Then, the cells were washed twice with FACS buffer and stained with PE conjugated secondary antibody at 4° C. for 30 minutes. After wash twice with FACS buffer, MFI of PE was analyzed by a NovoCyte flow cytometer.

[2] = target: T1, human PD-1 overexpressed on cells; assay: cell-based or functional assay
human PD1 = target: T2, human PD1 (human, UniProt Q15116 25-167, limits assumed); assay: ELISA, human PD1 coated, anti-human IgG-HRP detection
T2 construct: Recombinant protein for ELISA; also called human PD1 protein
T2 sequence (Q15116 25-167 limits assumed): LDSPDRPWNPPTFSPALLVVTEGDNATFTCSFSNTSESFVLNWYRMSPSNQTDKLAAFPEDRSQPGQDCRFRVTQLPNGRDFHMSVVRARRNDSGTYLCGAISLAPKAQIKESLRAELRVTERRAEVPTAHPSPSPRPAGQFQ
Method: (§2) To evaluate PD1 binding activity of the test bispecific antibodies, human PD1 and cynomolgus PD1 diluted in PBS were coated on a microplate respectively at 4° C. overnight. Three-fold dilution of test antibodies starting from 100 nM were added to each well and incubated for 1 hours at 25° C. Then, the plates were washed with ELISA washing buffer (1×DPBS with 0.5% Tween-20) and incubated with peroxidase conjugated anti-human IgG secondary antibody for 60 minutes at 25° C. After washed four times with ELISA washing buffer, the plates were detected by TMB-ELISA substrate solution, then stopped by ELISA stopping solution and analyzed by microplate reader at OD450 nm.

cynomolgus PD1 = target: T3, cynomolgus PD1 (cynomolgus, UniProt B0LAJ3 25-170); assay: ELISA, cynomolgus PD1 coated, anti-human IgG-HRP detection
T3 construct: Recombinant protein for ELISA; also called cynomolgus PD1 protein
T3 sequence (B0LAJ3 entry or part of it limits assumed, form in doubt): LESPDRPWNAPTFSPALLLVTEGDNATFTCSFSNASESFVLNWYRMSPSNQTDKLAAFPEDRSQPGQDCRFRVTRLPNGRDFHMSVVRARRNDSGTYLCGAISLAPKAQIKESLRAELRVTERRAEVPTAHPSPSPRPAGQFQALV
Method: as §2

[3] = target: T1, human PD-1 overexpressed on cells; assay: flow cytometry on CHO-K1 cells overexpressing human PD-1, PE secondary antibody
Method: as §1

T1 sequence (Q15116 25-288): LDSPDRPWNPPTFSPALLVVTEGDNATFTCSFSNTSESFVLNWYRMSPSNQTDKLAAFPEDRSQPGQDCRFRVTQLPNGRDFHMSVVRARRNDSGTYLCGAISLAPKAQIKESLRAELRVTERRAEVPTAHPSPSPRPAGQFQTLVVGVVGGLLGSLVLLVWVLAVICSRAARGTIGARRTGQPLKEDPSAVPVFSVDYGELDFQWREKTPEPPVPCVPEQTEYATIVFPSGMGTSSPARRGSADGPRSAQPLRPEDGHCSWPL

Binder | Top (OD450) [1] | EC50 (nM), PD1 blocking activity (PD1 reporter gene assay) [2] | Top (RLU), PD1 blocking activity (PD1 reporter gene assay) [2] | EC50 (human PD1) | Top (OD450) (human PD1) | EC50 (cynomolgus PD1) | Top (OD450) (cynomolgus PD1) | EC50 [3]
VH18 (anti-PD-1 VHH) (VHH, also called VH18 VHH; anti-PD1 parental antibody VH18) VHH: EVQLVESGGGLVQPGGSLRLSCAVSGNIYNRNFMGWFRQAPGKGREGVSAIYTGTSRTYYADSVKGRFTISRDNAKNTVYLQMNSLRPEDTAVYYCAADLRDGFWDTGVWNTWGQGTLVTVSS | 963000 | 11.2 nM | 191000 RLU | 0.083 nM | 1.75 OD450 | 0.151 nM | 1.56 OD450 | 2.35 nM
VH8M1 (anti-PD-1 VHH) (VHH, also called VH8M1 VHH; anti-PD-1 parental nanobody) VHH: EVQLVESGGGLVQPGGSLRLSCAVSGNIYNRNFMGWFRQAPGKGLEGVSAIYTGTSRTYYADSVKGRFTISRDNSKNTVYLQMNSLRAEDTAVYYCAADLREGFWDTGVWNTWGQGTLVTVSS | 448000 | 13.3 nM | 201000 RLU |  |  |  |  | 0.759 nM
Pembrolizumab (antibody, V domains shown) VH: QVQLVQSGVEVKKPGASVKVSCKASGYTFTNYYMYWVRQAPGQGLEWMGGINPSNGGTNFNEKFKNRVTLTTDSSTTTAYMELKSLQFDDTAVYYCARRDYRFDMGFDYWGQGTTVTVSS VL: EIVLTQSPATLSLSPGERATLSCRASKGVSTSGYSYLHWYQQKPGQAPRLLIYLASYLESGVPARFSGSGSGTDFTLTISSLEPEDFAVYYCQHSRDLPLTFGGGTKVEIKR |  |  |  |  |  | 0.057 nM | 1.17 OD450 | 
